Molecular target: T1, HLA-A2402 molecule on T2-A24 cells (human, UniProt P04439-2 25-302 at identity 0.92))
T1 construct: whole, on cells; Cell-surface HLA-A2402 of T2-A24 transfectants; also called HLA-A24 molecules
T1 MHC heavy: not shown
Assay: MHC stabilization assay, T2-A24 cells with 10 µM peptide, anti-HLA-A2402 mAb staining, flow cytometry
With NYKLAVNCF (Synthetic peptide) [Ep31 (Ep-CAM 31-39 peptide NYKLAVNCF)] the “% MFI increase” value was 85%.
LYENNVITI (Synthetic peptide) [Ep185 (Ep-CAM 185-193 peptide LYENNVITI)] was tested, and the “% MFI increase” value was 79%.
YYVDEKAPEF (Synthetic peptide) [Ep250 (Ep-CAM 250-259 peptide YYVDEKAPEF)] was tested, and the “% MFI increase” value was 57%.
For KYEKAEIKEM (Synthetic peptide) [Ep296 (Ep-CAM 296-305 peptide KYEKAEIKEM)], the “% MFI increase” value was 24%.
For LFHSKKMDL (Synthetic peptide) [Ep225 (Ep-CAM 225-233 peptide LFHSKKMDL)], the “% MFI increase” value was 29%.
For EMGEMHREL (Synthetic peptide) [Ep304 (Ep-CAM 304-312 peptide EMGEMHREL)], the “% MFI increase” value was 16%.

Source: patent US20100167321A1 (AICHI PREFECTURE, published 2010)
